Assay results reported in PMC8083607 (2021).
Positions count from the first letter of the chain named.

How the values were obtained:
Test in all cases: SPR
[1] = molecular target: SARS-CoV-2 S2 (recombinant) (SARS-CoV-2)
[2] = molecular target: SARS-CoV-2 RBD (recombinant, limits not stated) (SARS-CoV-2, UniProt P0DTC2 333-526)
[3] = molecular target: SARS-CoV-2 NTD (recombinant, limits not stated) (SARS-CoV-2)

B1: FC118 (antibody, V domains shown)
VH: EVQLLESGGGVVQPGRSLRLSCAASGFTFSSYAMHWVRQAPGKGLEWVAVISYDGSNKYYADSVKGRFTISRDNSKNTLYLQMNSLRAEDTAVYYCARARGGSYLYGMDVWGQGAMVTVSS
VL: DIELTQSPSSLAASVGDTVTITCRASQTIGKYLTWYQKKPGRAPDLLIYAASRLQSGVPSRFSGRASGTEFTLTISSLQPEDFATYFCQHTYRTLSFGPGTKVDLK
For B1, which Kd [1] is on record?
Its Kd is 41.1 nM.

B2: FC124 (antibody, V domains shown)
VH: B1 VH with V50L, S56I, K65N, N77Y, R100H, G101R, L105Y, A115T
VL: DIELTQSPGTLSLSPGERATLYCRASQSVSSSYLAWYQQKPGQAPRLLIYGAFGRAAGIPDRFRGSGSGTQFTLTISRLEPEDSAVYFCQQYGQSPLYSFGQGTKLEIK
Which Kd [1] does the source give for B2 here?
The Kd was 38.6 nM.

B3: FC122 (antibody, V domains shown)
VH: B1 VH with V50L, S56I, K65N, N77Y, R100H, G101R, L105Y, A115T
VL: DIELTQSPSSLSASVGDSVTITCRGSQIISRYLNWYQQKPGKAPKLLIYAASTLQSGVPSRFSGSGSGTEFTLSISSLEPEDFATYYCQQSYAIPYTFGQGTRLEI
With B3 as the binder, how does the Kd [1] read?
Its Kd is 9.44 nM.

B4: FC11 (antibody, V domains shown)
VH: EVQLLESGGGVVQPGRSLRLSCAASGFTFSYYGMHWVRQAPGTGLEWVAVISYDGSNEYYADSVKGRFTISRDNSKNTLYLQMNSLRAEDTAVYYCAKAMFLGDSSGLTGLDMDVWGQGTTVTVSS
VL: DIELTQSPGTLSLSPGERATLSCRASQSVSSYLAWYQQKPGQAPRLLIYDASNRATGIPARFSGSGSGTDFTLTISSLEPEDFALYYCQQRGNWPPTFGGGTKLEIK
Which Kd [2] does the source give for B4 here?
The Kd was 5.24 nM.

B5: FC08 (antibody, V domains shown)
VH: QLLQQSGAEVKKPGSSVKVSCKASGGTFSSYAISWVRQAPGQGLEWMGGIIPIIGIANYAQKFQGRVTITADKSTSTAYMELSSLRSEDTAVYYCARERGYSGYGAAYYFDYWGQGTLVTVSS
VL: SVLTQPPSVSGAPGQRVTISCTGSSSNIGAGYDVHWYQQLPGTAPKLLIYGNSNRPSGVPDRFSGSKSGTSASLAITGLQAEDEADYYCQSYDSSLSGSVFGGGTKLTVL
With B5 as the binder, how does the Kd [2] read?
Its Kd is 0.298 nM.

B6: FC06 (antibody, V domains shown)
VH: EVQLLESGGGVVQPGRSLRLSCAASGFTFSSYAMHWVRQAPGEGLEWVAVISYDGSNKYYADSVKGRFTISRDNSKNTLYLQMNSLRAGDTAVYYCARLNYYGSGFYYRLGDDYWGQGTLVTVSS
VL: DIELTQSPSSLSASEGDRVTITCRASQGIRNDLGWYQQKPGKAPKRLIYGAPSLQSGVPSRFSGSGSGTEFTLTISTLQPEDSATYYCLQHNKYPWTFGQGTKVEIK
Which Kd [3] does the source give for B6 here?
Its Kd is 7.49 nM.

B7: FC07 (antibody, V domains shown)
VH: EVQLLESGGGLVQPGGSLRLSCAASGFTFGSYAMSWVRQAPGKGLEWVSSISGSGGSTYYADSAKGRFTISRDNSKNTLYLQMNSLRAEDTAVYYCAKSPNYDILTGYYNWAGYYFDYWGQGTLVTVSS
VL: DIELTQSPGTLSLSPGDRATLSCRASRGVSSNSLAWYRQRPGESPRLVISGASTRATGIPERFSGSGSGTDFSLSISRLQPEDFAVYYCQQYGSFPFTFGPGTTVDV
B7 was tested. Which Kd [3] did it give?
The Kd was 63.4 nM.

B8: FC01 (antibody, V domains shown)
VH: EVQLLESGTEVKKPGSSVKVSCKASGGTFSSYAISWVRQAPGQGLEWMGGIIPILGIANYAQKFQGRVTITADKSTSTAYMELSSLRSEDTAVYYCARERGYSGYGAAYYFDYWGQGTLVTVSS
VL: QSVLTQAPSVSGAPGQSVTISCTGSSSNIGAGYDVHWYQQLPGTAPKLLIYGNNNRPSGVPDRFSGSKSGTSASLAITGLQAEDEADYYCQSYDSSLSKGVFGGGTKLTVL
Which Kd [2] does the source give for B8 here?
Its Kd is 0.628 nM.

B9: FC120 (antibody, V domains shown)
VH: EVQLLESGAEVKKPGASVKVSCKASGYTFTSYYMHWVRQAPGQGLEWMGIINPSGGSTSYAQKFQGRVTMTRDTSTSTVYMELSSLRSEDTAVYYCARGGGHALDIWGQGTMVTVSS
VL: QSVLTQPPSVSGAPGQKVTISCSGSSSNIGNNYVSWYQQLPGTAPKLLIYDNNKRPSGIPDRFSGSKSGTSATLGITGLQTGDEADYYCGTWDSSLSAWVFGGGTKLTVL
How did the Kd [1] turn out when B9 was run?
The Kd was 21.8 nM.

B10: FC05 (antibody, V domains shown)
VH: VQLLEQSGAEVKKPGASVRVSCKVSGYTLPEVAMHWVRQAPGKGLEWMGGFDPEDGETMYAQKFQGRVTMTEDTSTDTAYMELSSLRSEDTAVYYCATTTPFSSSYWFDPWGQGTLVTVSS
VL: B9 VL with P7A, W99V
Which Kd [3] does the source give for B10 here?
Its Kd is 4.32 nM.
